In article doi:10.1101/2021.12.21.473721 (bioRxiv, 2021):

Target: the molecule itself
Experiment: SEC

B1: bacteriophage MS2 coat protein, wildtype (MS2[WT]) (natural protein)
chain: ASNFTQFVLVDNGGTGDVTVAPSNFANGVAEWISSNSRSQAYKVTCSVRQSSAQNRKYTIKVEVPKVATQTVGGVELPVAAWRSYLNMELTIPIFATNSDCELIVKAMQGLLKDGNPIPSAIAANSGIY
binding result: binds
